Data on 1 substance can be found in patent publication US20250262274A1.

The assay deals with VMRFL (VEGFR2-c-MPL chimeric receptor, D1-7 linked to the c-MPL TM) (human). The assay is described as follows: cell-based or functional assay.

Consider “recombinant human VEGF-A165 (from UniProt P15692 27-191) (ligand)”, for which the EC50 of % pSTAT5+ cells (VEGF dose-dependent STAT5 phosphorylation in VMRFL+ T cells) turned out to be 106 pg/ml and the EC50 of pSTAT5 MFI (VEGF dose-dependent STAT5 phosphorylation in VMRFL+ T cells) came out at 144 pg/mL.
